According to PMC6135763 (Nature Communications, 2018):

Tests used:
[1] = molecular target: Importin α7ΔIBB (residues 73–536) (human, UniProt O60684 73-536); experiment: ELISA; conditions: both partners purified
[2] = molecular target: T1, Importin α3ΔIBB (residues 64–521) (human, UniProt O00629 64-521); experiment: ELISA; conditions: both partners purified
T1 construct: also called Impα3; KPNA4
T1 sequence (looked up): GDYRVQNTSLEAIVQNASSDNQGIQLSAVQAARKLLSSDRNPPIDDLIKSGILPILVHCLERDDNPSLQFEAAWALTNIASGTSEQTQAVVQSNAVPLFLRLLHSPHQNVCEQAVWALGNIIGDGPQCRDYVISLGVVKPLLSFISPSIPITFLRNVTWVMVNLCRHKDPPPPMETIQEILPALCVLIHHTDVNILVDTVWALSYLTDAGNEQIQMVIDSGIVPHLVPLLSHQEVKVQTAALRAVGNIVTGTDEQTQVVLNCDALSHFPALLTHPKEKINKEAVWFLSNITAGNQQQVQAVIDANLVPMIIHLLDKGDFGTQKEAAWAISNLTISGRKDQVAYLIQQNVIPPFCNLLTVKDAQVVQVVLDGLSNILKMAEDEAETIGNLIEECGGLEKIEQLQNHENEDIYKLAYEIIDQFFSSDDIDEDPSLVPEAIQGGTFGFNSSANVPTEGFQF

Chain of Importin α7ΔIBB (residues 73–536) (O60684 73-536, stated change not applied): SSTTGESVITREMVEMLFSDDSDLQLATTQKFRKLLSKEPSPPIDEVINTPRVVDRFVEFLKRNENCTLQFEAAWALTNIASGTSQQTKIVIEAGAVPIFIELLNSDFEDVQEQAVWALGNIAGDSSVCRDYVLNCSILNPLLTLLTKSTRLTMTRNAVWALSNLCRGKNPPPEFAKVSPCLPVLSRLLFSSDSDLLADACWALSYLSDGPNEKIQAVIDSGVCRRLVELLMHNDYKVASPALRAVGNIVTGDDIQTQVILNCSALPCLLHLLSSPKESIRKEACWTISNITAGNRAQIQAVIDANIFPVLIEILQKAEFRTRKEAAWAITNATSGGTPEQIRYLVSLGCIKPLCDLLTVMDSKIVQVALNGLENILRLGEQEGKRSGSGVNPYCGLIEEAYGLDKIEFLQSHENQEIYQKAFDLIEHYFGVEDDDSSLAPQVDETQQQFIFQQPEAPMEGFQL

Work on RSLNMLGRKTCLGRRVVQPGMFADYPPTKKARVLLRRMSN (domain or fragment) [GST-HeV W (C-terminal NLS domain of Hendra virus W protein, residues 409–448, GST fusion)] yielded a Kd [1] of 1500 nM and a Kd [2] of 19.9 nM.

For RNIHLLGRKTCLGRRVVQPGMFEDHPPTKKARVSMRRMSN (domain or fragment) [GST-NiV W (C-terminal NLS domain of Nipah virus W protein, residues 411–450, GST fusion)], the Kd [1] was 1100 nM and the Kd [2] was 14.4 nM.
